Laboratory results taken from the Human Domainome abundance scans (Beltran et al. 2025).
± gives the uncertainty stated by the source.

B1: GA-binding protein alpha chain, residues 172 to 250; numbered along this chain, Q06546 (parent)
chain: GYRKEQERLGIPYDPIQWSTDQVLHWVVWVMKEFSMTDIDLTTLNISGRELCSLNQEDFFQRVPRGEILWSHLELLRKY

Variants of: B1
Experiment: abundance fitness (aPCA) (normalised: wild type 0, dead -1); higher = more abundant; growth selection in yeast, the domain comes from the species named
Conditions: Homo sapiens

Abundance fitness: each site, then its substitutions
Y13: D -0.064 ± 0.052 | N 0.006 ± 0.11 | H -0.114 ± 0.088 | I -0.022 ± 0.074 | S -0.029 ± 0.039 | E 0 ± 0.048 | P -0.058 ± 0.049 | G -0.119 ± 0.028 | K -0.024 ± 0.063 | F 0.014 ± 0.03
L9: T -0.11 ± 0.055 | E -0.117 ± 0.067 | P -0.815 ± 0.096 | N -0.08 ± 0.079 | Y -0.133 ± 0.082 | I -0.081 ± 0.13 | K -0.061 ± 0.096 | R -0.047 ± 0.037 | V -0.013 ± 0.035 | D -0.368 ± 0.095 | G -0.373 ± 0.035 | A -0.08 ± 0.053 | Q 0.016 ± 0.055 | S -0.174 ± 0.046 | M 0.011 ± 0.038
R8: A -0.056 ± 0.035 | H -0.21 ± 0.1 | T -0.117 ± 0.064 | G -0.363 ± 0.036 | D -0.185 ± 0.099 | E -0.054 ± 0.052 | I -0.222 ± 0.1 | M -0.133 ± 0.058 | P -0.596 ± 0.07 | K -0.024 ± 0.064 | Q -0.158 ± 0.061 | N -0.191 ± 0.12 | C -0.355 ± 0.064 | F -0.368 ± 0.1 | L -0.06 ± 0.035
P12: G -0.577 ± 0.041 | T -0.56 ± 0.077 | E -0.478 ± 0.069 | W -0.98 ± 0.14 | S -0.229 ± 0.036 | L -0.955 ± 0.085 | F -0.949 ± 0.22 | I -0.912 ± 0.33 | M -0.903 ± 0.12 | V -0.724 ± 0.035 | D -0.34 ± 0.1 | N -0.542 ± 0.2 | A -0.3 ± 0.033 | C -0.494 ± 0.072 | K -0.762 ± 0.19 | R -0.969 ± 0.078 | Y -0.707 ± 0.16
G10: H -0.07 ± 0.085 | C -0.079 ± 0.05 | K -0.041 ± 0.051 | D -0.196 ± 0.087 | W -0.464 ± 0.045 | V -0.383 ± 0.037 | P -0.978 ± 0.13 | E -0.096 ± 0.038 | Q 0.01 ± 0.057 | T -0.411 ± 0.069 | L -0.158 ± 0.03 | A -0.068 ± 0.035 | I -0.562 ± 0.23 | F -0.272 ± 0.079 | N 0.028 ± 0.075 | M -0.096 ± 0.059 | R -0.085 ± 0.033
I11: Y -0.238 ± 0.061 | A -0.651 ± 0.058 | D -0.921 ± 0.34 | M -0.312 ± 0.045 | S -0.842 ± 0.075 | R -0.808 ± 0.062 | T -0.75 ± 0.089 | G -0.752 ± 0.046 | C -0.487 ± 0.058 | E -0.924 ± 0.13 | L -0.191 ± 0.035 | F -0.263 ± 0.071 | K -1.21 ± 0.44 | Q -1.01 ± 0.33 | P -0.928 ± 0.13 | N -0.818 ± 0.22 | H -0.644 ± 0.25 | V -0.342 ± 0.031
D14: A -0.369 ± 0.043 | L -0.766 ± 0.061 | I -0.94 ± 0.15 | K -0.793 ± 0.23 | C -0.393 ± 0.048 | H -0.147 ± 0.078 | G -0.805 ± 0.049 | F -1.01 ± 0.18 | E -0.15 ± 0.049
E7: D 0.031 ± 0.073 | W -0.288 ± 0.05 | I -0.161 ± 0.12 | F -0.252 ± 0.063 | Q -0.072 ± 0.054 | R -0.141 ± 0.03 | Y -0.282 ± 0.085 | A -0.071 ± 0.044 | N -0.177 ± 0.14 | M -0.098 ± 0.057 | K -0.494 ± 0.28 | V -0.172 ± 0.033 | S -0.163 ± 0.038 | P -0.891 ± 0.097 | T -0.09 ± 0.046 | G -0.315 ± 0.029
E5: I 0.004 ± 0.064 | V -0.093 ± 0.042 | Q -0.485 ± 0.074 | Y -0.149 ± 0.096 | S -0.742 ± 0.057 | D -0.371 ± 0.074 | R -0.913 ± 0.078 | N -0.897 ± 0.24 | A -0.608 ± 0.058 | K -0.806 ± 0.22 | W -0.442 ± 0.094 | P -0.958 ± 0.19 | F -0.419 ± 0.088 | H -0.354 ± 0.13 | L -0.45 ± 0.05 | T -0.347 ± 0.093 | C -0.288 ± 0.07 | M -0.281 ± 0.077
Q6: I 0.078 ± 0.091 | T -0.172 ± 0.054 | C -0.118 ± 0.067 | H -0.852 ± 0.11 | P -0.739 ± 0.12 | F -0.184 ± 0.069 | L 0.037 ± 0.036 | E -0.26 ± 0.053 | D -0.678 ± 0.31 | M -0.015 ± 0.09 | V -0.069 ± 0.036 | W -0.498 ± 0.071 | N -0.844 ± 0.2 | A -0.076 ± 0.041 | S -0.221 ± 0.042 | K -0.96 ± 0.13
K4: Q -0.106 ± 0.084 | S -0.026 ± 0.035 | H -0.003 ± 0.11 | V -0.045 ± 0.038 | C -0.27 ± 0.055 | N -0.032 ± 0.2 | A -0.063 ± 0.044 | I 0.054 ± 0.062 | E -0.072 ± 0.071 | P -0.326 ± 0.067 | Y -0.1 ± 0.073 | W -0.12 ± 0.041 | R -0.029 ± 0.03 | F -0.131 ± 0.071 | D -0.104 ± 0.063 | T -0.067 ± 0.1
